19 molecules from patent US20250145694A1 (GUANGDONG FEIPENG BIOLOGICAL, published 2025) can be followed below.

The term Kd denotes the free concentration of one partner at which half of the binding sites on the other are occupied at equilibrium, for simple one-to-one binding. A word on the koff: it is the rate constant with which the complex falls apart. By kon is commonly meant a measure of how fast the partners come together.

Residue numbers refer to the chain shown, from its start.

B1: WT 1-1 (antibody, V domains shown)
VH: QVQLQQSGTELAKPGASVKFSCKASDYTFSTYWMYWIKQRPGQGLEWIGYINPSTGHTEYNQKFKDKATLTADKSSSTAYMQLNSLTSEDSAVYYCARRYYGPFAMDYWGQGTSVTVSS
VL: EIFLTQSPAIMSASPGEKVTMTCSASSSVSYAHWYQQKSGTSPKRWIYDSSKIASGIPVRFSGSGSGTSYSLTISSMEAEDAATYYCQNWSTNPYTFGGGTKLEIKR
B2: WT 1-5 (antibody, V domains shown)
VH: B1 VH with T31S, I51L, R99K, Y101W
VL: B1 VL
B3: Mutation 1-34 (antibody)
heavy: EVQMVESGGGLLKPGGSLKLSCAASGFTYSNYAMSWVRQTPEKRLEWVATISSGGSYSFYPDSVKGRFTISRDNAKNTLYLQMLSLRSEDTAMYYCARRDNYPGSSFMDYWGQGSSVTVSSAKTTPPSVYPLAPGSAAQTNSMVTLGCLVKGYFPEPVTVTWNSGSLSSGVHTFPAVLQSDLYTLSSSVTVPSSTWPSQTVTCNVAHPASSTKVDKKIVPRDCGCKPCICTVPEVSSVFIFPPKPKDVLTITLTPKVTCVVVDISKDDPEVQFSWFVDDVEVHTAQTKPREEQFNSTFRSVSELPIMHQDWLNGKEFKCRVNSAAFPAPIEKTISKTKGRPKAPQVYTIPPPKEQMAKDKVSLTCMITNFFPEDITVEWQWNGQPAENYKNTQPIMDTDGSYFVYSKLNVQKSNWEAGNTFTCSVLHEGLHNHHTEKSLSHSPG
light: DIQMTQTSSSLSASLGDRVTISCRASQDITNYLNWYQQKPDGTIKLLIYYTSRIHSGVSSRFSGSGSGTDYSLTISNLEQEDIATYFCQQGNTIPLTFDTGTKLELKRADAAPTVSIFPPSSEQLTSGGASVVCFLNNFYPKDINVKWKIDGSERQNGVLNSWTDQDSKDSTYSMSSTLTLTKDEYERHNSYTCEATHKTSTSPIVKSFNRNEC
notes: assembled FR/CDR/constant
B4: Mutation 1-43 (antibody)
heavy: B3 heavy with Y29F, F59Y, S106T
light: B3 light with I54L
notes: assembled FR/CDR/constant
B5: Mutation 1-47 (antibody)
heavy: B3 heavy with Y29F, F59Y
light: B3 light with I94L
notes: assembled FR/CDR/constant
B6: Mutation 1-44 (antibody)
heavy: B3 heavy with F59Y
light: B3 light with I54L, N92H, I94L
notes: assembled FR/CDR/constant
B7: Mutation 1-37 (antibody)
heavy: B3 heavy with Y29F, P103Y
light: B3 light with I54L, N92H, I94L
notes: assembled FR/CDR/constant
B8: Mutation 1-35 (antibody)
heavy: B3 heavy with Y29F, F59Y, P103F, S106T
light: B3 light with I54L, N92H, I94L
notes: assembled FR/CDR/constant
B9: Mutation 1-38 (antibody)
heavy: B3 heavy with S106T
light: B3 light with I54L
notes: assembled FR/CDR/constant
B10: Mutation 1-48 (antibody)
heavy: B3 heavy with F59Y, S106T
light: B3 light with D28E
notes: assembled FR/CDR/constant
B11: Mutation 1-40 (antibody)
heavy: B3 heavy with F59Y, P103F, S106T
light: B3 light with D28E, I94L
notes: assembled FR/CDR/constant; Same printed sites as Mutation 1-4
B12: Mutation 1-41 (antibody)
heavy: B3 heavy with Y29F, P103F
light: B3 light with D28E, I54L, I94L
notes: assembled FR/CDR/constant
B13: Mutation 1-42 (antibody)
heavy: B3 heavy with P103Y
light: B3 light with D28E, N92H
notes: assembled FR/CDR/constant
B14: Mutation 1-36 (antibody)
heavy: B3 heavy with F59Y, P103Y, S106T
light: B3 light with D28E, I94L
notes: assembled FR/CDR/constant
B15: Mutation 1-46 (antibody)
heavy: B3 heavy with P103Y, S106T
light: B3 light with D28E, I54L, N92H, I94L
notes: assembled FR/CDR/constant
B16: Mutation 1-39 (antibody)
heavy: B3 heavy with Y29F, F59Y
light: B3 light with N92H
notes: assembled FR/CDR/constant
B17: Mutation 1-45 (antibody)
heavy: B3 heavy with Y29F, P103F, S106T
light: B3 light with D28E
notes: assembled FR/CDR/constant
B18: Mutation 3 (antibody)
heavy: B3 heavy with F59Y, R99K, P103Y, S106T
light: B3 light with T51S
notes: assembled FR/CDR/constant
B19: Mutation 2 (antibody)
heavy: B3 heavy with S53T, F59Y, P103Y, S106T
light: B3 light with N31Q
notes: assembled FR/CDR/constant

For the first test, the target named is T1, CTNI quality control recombinant antigen (human, UniProt P19429 1-210, limits assumed).
T1 construct: Recombinant antigen produced by the applicant; also called CTNI quality control recombinant protein (antigen produced by the company); cardiac troponin I
T1 sequence (P19429 whole entry): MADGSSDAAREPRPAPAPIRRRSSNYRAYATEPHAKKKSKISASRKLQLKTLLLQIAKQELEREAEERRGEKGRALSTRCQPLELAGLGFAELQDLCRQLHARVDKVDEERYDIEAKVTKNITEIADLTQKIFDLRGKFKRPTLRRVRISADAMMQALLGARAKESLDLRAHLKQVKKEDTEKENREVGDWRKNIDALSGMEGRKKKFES
Put plainly: BLI, antibody on AMC sensor, cTnI in solution. As to the method: With an AMC sensor, the purified antibody was diluted to 10 μg/ml with PBST, and CTNI quality control recombinant protein (antigen produced by the company) was gradient diluted with PBST to 769.2 nmol/ml, 384.6 nmol/ml, 192.3 nmol/ml, 96.2 nmol/ml, 48.1 nmol/ml, 24 nmol/ml, 12 nmol/ml, and 0 nmol/ml.
B1: the dissociation constant Kd came to 33.3 nM, the off-rate constant (koff) was 0.000128 s⁻¹ and the kon stood at 3840 M⁻¹ s⁻¹.

For B2, the dissociation constant (Kd) worked out at 8.35 nM, the dissociation rate constant (koff) was 0.000743 s⁻¹ and the kon worked out at 89000 M⁻¹ s⁻¹.

For B3, the Kd is 8.44 nM, the koff amounted to 0.000255 s⁻¹ and the association rate constant (kon) came to 30200 M⁻¹ s⁻¹.

As to B4, the Kd was determined as 5.37 nM, the koff came to 0.000248 s⁻¹ and the kon came out at 46100 M⁻¹ s⁻¹.

B5: the dissociation constant Kd came to 2.87 nM, the off-rate constant (koff) worked out at 9.47e-05 s⁻¹ and the kon is 33000 M⁻¹ s⁻¹.

Consider B6, for which the Kd came out at 3.53 nM, the koff is 0.000171 s⁻¹ and the on-rate (kon) came out at 48500 M⁻¹ s⁻¹.

Regarding B7, the equilibrium dissociation constant (Kd) came out at 4.2 nM, the koff amounted to 0.000299 s⁻¹ and the kon was 71000 M⁻¹ s⁻¹.

For B8, the Kd turned out to be 5.25 nM, the koff was found to be 0.000161 s⁻¹ and the on-rate (kon) is 30700 M⁻¹ s⁻¹.

B9: the Kd worked out at 7.74 nM, the koff was 0.00057 s⁻¹ and the association rate constant (kon) turned out to be 73700 M⁻¹ s⁻¹.

B10: the Kd is 7.04 nM, the koff was 0.000583 s⁻¹ and the kon amounted to 82800 M⁻¹ s⁻¹.

Turning to B11, the dissociation constant (Kd) is 3.12 nM, the off-rate constant (koff) turned out to be 0.000262 s⁻¹ and the on-rate (kon) was 83900 M⁻¹ s⁻¹.

Consider B12, for which the Kd was found to be 9.24 nM, the koff was 0.000774 s⁻¹ and the kon came to 83800 M⁻¹ s⁻¹.

As to B13, the Kd turned out to be 3.09 nM, the koff stood at 0.000109 s⁻¹ and the kon turned out to be 35200 M⁻¹ s⁻¹.

Regarding B14, the equilibrium dissociation constant (Kd) turned out to be 9.27 nM, the koff came to 0.000774 s⁻¹ and the kon amounted to 83500 M⁻¹ s⁻¹.

Turning to B15, the dissociation constant Kd is 4.93 nM, the off-rate (koff) came out at 0.000274 s⁻¹ and the kon amounted to 55600 M⁻¹ s⁻¹.

Turning to B16, the equilibrium dissociation constant (Kd) was 6.25 nM, the koff was 0.000509 s⁻¹ and the kon turned out to be 81400 M⁻¹ s⁻¹.

Take B17: the dissociation constant (Kd) amounted to 9.02 nM, the dissociation rate constant (koff) stood at 0.00019 s⁻¹ and the kon came out at 21100 M⁻¹ s⁻¹.

Another test deals with T1, CTNI quality control recombinant antigen. The test is described as follows: indirect ELISA, cTnI coated 1 ug/ml, antibody 0.051 ng/ml. The procedure: (§1) CTNI quality control recombinant antigen was diluted to 1 μg/ml with a coating solution and coated a microplate, 100 μL per well, overnight at 4° C.; on the next day, the microplate was washed with a washing solution twice and patted dry; a blocking solution (20% of BSA+80% of PBS) was added, 120 μL per well, 37° C., 1 h, patted dry; the diluted cTnI monoclonal antibodies were added, 100 μL/well, 37° C., 30 min; the microplate was washed with a washing solution 5 times, patted dry; goat anti-mouse IgG-HRP, 100 μL per well, 37° C., 30 min; the microplate was washed with a washing solution 5 times, patted dry; a color-developing solution A (50 μL/well) was added, a color-developing solution B (50 μL/well) was added, 10 min; a stop solution was added, 50 μL/well; OD values were read on microplate reader at 450 nm (reference, 630 nm).
In general terms: ELISA stands for enzyme-linked immunosorbent assay.
As for B18, the “OD450 (reference 630 nm)” value stood at 0.049 OD.

Take B19: the “OD450 (reference 630 nm)” value was determined as 0.058 OD.

Another test shares this target. Put plainly: indirect ELISA, cTnI coated 1 ug/ml, antibody 0.152 ng/ml. As to the method: as §1
On to B18, for which the “OD450 (reference 630 nm)” value came to 0.068 OD.

Regarding B19, the “OD450 (reference 630 nm)” value was 0.072 OD.

For the next test the target is unchanged. The test is described as follows: indirect ELISA, cTnI coated 1 ug/ml, antibody 0.457 ng/ml. The procedure: as §1
Regarding B18, the “OD450 (reference 630 nm)” value came to 0.172 OD.

Turning to B19, the “OD450 (reference 630 nm)” value was found to be 0.248 OD.

A further test shares this target. Put plainly: indirect ELISA, cTnI coated 1 ug/ml, antibody 1.372 ng/ml. As to the method:
as §1
For B18, the “OD450 (reference 630 nm)” value worked out at 0.479 OD.

On to B19, for which the “OD450 (reference 630 nm)” value turned out to be 0.728 OD.

The target is the same in another test. The test is described as follows: indirect ELISA, cTnI coated 1 ug/ml, antibody 4.115 ng/ml. As to the method: as §1
For the molecule B18, the “OD450 (reference 630 nm)” value was found to be 1.04 OD.

For the molecule B19, the “OD450 (reference 630 nm)” value was determined as 1.44 OD.

The next test shares this target. Put plainly: indirect ELISA, cTnI coated 1 ug/ml, antibody 12.346 ng/ml. The procedure: as §1
As for B18, the “OD450 (reference 630 nm)” value is 1.78 OD.

On to B19, for which the “OD450 (reference 630 nm)” value stood at 1.95 OD.

For the next test the target is unchanged. The test is described as follows: indirect ELISA, cTnI coated 1 ug/ml, antibody 0 ng/ml (blank). As to the method:
as §1
On to B18, for which the “OD450 (reference 630 nm)” value came out at 0.011 OD.

With B19, the “OD450 (reference 630 nm)” value was 0 OD.
